This is an account of results in patent publication US20230038638A1, “COMPLEMENT FACTOR I-RELATED COMPOSITIONS AND METHODS” (published 2023).

The target in assay [1] is soluble human C3b (human) (UniProt P01024).
The target is the same in assay [2]. The source holds these as a separate data set.
In assay [3] the target is T1, human C4b (human) (UniProt P0C0L5).
T1 sequence: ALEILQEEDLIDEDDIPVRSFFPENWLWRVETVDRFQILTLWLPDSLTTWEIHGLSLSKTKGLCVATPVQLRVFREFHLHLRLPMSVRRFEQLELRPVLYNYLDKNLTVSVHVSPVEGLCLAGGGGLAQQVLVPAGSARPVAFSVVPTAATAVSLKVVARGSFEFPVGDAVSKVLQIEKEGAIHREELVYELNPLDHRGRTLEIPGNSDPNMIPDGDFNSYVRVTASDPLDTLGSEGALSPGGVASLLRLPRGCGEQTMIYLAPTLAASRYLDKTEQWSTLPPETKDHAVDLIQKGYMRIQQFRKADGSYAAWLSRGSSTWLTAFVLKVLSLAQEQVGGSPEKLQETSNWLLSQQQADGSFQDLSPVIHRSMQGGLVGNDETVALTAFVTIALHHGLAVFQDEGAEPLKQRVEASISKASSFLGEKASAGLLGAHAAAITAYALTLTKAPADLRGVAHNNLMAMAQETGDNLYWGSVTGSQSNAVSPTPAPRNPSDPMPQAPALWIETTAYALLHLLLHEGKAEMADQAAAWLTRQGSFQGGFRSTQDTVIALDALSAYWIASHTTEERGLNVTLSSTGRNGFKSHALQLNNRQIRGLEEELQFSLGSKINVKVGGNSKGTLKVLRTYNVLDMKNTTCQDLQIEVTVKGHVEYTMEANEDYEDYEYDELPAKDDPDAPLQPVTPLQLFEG

Assay [4] deals with soluble human C3b (human) (UniProt P01024). This is another data set of the same source.
In assay [5] the target is T2, C3b (human, UniProt P01024).
For assay [6], the target named is T2, C3b. This is another data set of the same source.
Assay [7] deals with T2, C3b. This is another data set of the same source.
The target of assay [8] is T1, human C4b (human). The source holds these as a separate data set.
Assay [9] addresses soluble human C3b (human) (UniProt P01024). The source holds these as a separate data set.
In assay [10] the target is T2, C3b. This is another data set of the same source.
Assay [11] concerns the target T3, C4b (human, UniProt P0C0L4).
T3 sequence: T1 sequence with T151A, G317D, L364P, S365C, I368L, H369D, S420N, A451V, R454L, A530S

Assay [12] addresses T3, C4b. The source holds these as a separate data set.
Assay [13] has as its target T2, C3b. The source holds these as a separate data set.
Assay [14] concerns the target T2, C3b. This is another data set of the same source.
For assay [15], the target named is CFI-HSA (human serum albumin fused to the N-terminal end of wild type CFI) (human).
The target of assay [16] is T2, C3b. Description: cell-based or functional assay.
The target in assay [17] is T3, C4b. Description: cell-based or functional assay.

Where a chain is given by its changes, count along the chain named. Where two headings read alike, the source gives them in different places.

In the case of “CFI-HSA (E416A; D425R; E457G; N531G variant) (enzyme)”, in [1], the Fold-decrease EC50 (iC3b) vs. CFI WT came to 8.03 fold.

CFI-HSA (E416A; N531G variant) (enzyme) displayed a Fold-decrease EC50 (iC3b) vs. CFI WT in assay [1] of 3.67 fold.

Molecule CFI-HSA (E457G; N531G variant) (enzyme) registered a Fold-decrease EC50 (iC3b) vs. CFI WT in [1] of 3.86 fold.

In assay [1], “CFI-HSA (hCR1; CCP15; CCP16; CCP17 C-terminal fusion) (enzyme)” gave a Fold-decrease EC50 (iC3b) vs. CFI WT of 0.79 fold.

“CFI-HSA (human serum albumin fused to the N-terminal end of wild type CFI)” registered a C3b-enriched AP hemolytic assay IC50 in assay [2] of 26.4 nM.

Consider “CFI-HSA (human serum albumin fused to the N-terminal end of wild type CFI) (enzyme)”, for which, in assay [3], the C4b cleavage EC50 was 365 nM. This molecule also had a C3b cleavage EC50 in assay [4] of 25.5 nM.

Consider CFI-HSA variant D425A (enzyme), for which the C3b cleavage, % Activity in assay [5] amounted to 103%. In assay [6], this molecule yielded a C3b cleavage rate, kmut/kwt of 1. Besides, in assay [7], the C3dg formation in activated human serum (TRIFMA), EC50 WT/EC50Variant worked out at 1.7. Further, the C4b Screen Ref Fold (fold vs CFI-HSA wild type) in [8] came to 2.71. Further, in assay [9], the iC3b Screen Ref Fold (fold vs CFI-HSA wild type) worked out at 1.07.

In [5], CFI-HSA variant D425R (enzyme) yielded a C3b cleavage, % Activity of 104%. The C3b cleavage rate, kmut/kwt in [6] was 2. Further, the C3dg formation in activated human serum (TRIFMA), EC50 WT/EC50Variant in assay [7] stood at 4.2. In addition, in assay [8], the C4b Screen Ref Fold (fold vs CFI-HSA wild type) is 0.69. Moreover, the iC3b Screen Ref Fold (fold vs CFI-HSA wild type) in assay [9] was found to be 1.46.

In turn, “CFI-HSA variant E457G + CR1(CCP1-3) (from UniProt P17927) (enzyme)” registered an AP IC50, alternative pathway hemolysis in assay [10] of 86 nM. In addition, in [11], the CP IC50, classical pathway hemolysis of sensitised sheep red cells is 122 nM.

With “CFI-HSA variant E457G; P535G with hCR1; CCP15; CCP16; CCP17 C-terminal fusion (enzyme)”, in assay [12], the C4c No Cofactor EC50 (C4b cleavage, C4c ELISA) is 35.9 nM.

With CFI-HSA variant N531G + P535A (enzyme), the C3b cleavage, % Activity in [5] came out at 120%. Besides, in [6], the C3b cleavage rate, kmut/kwt was found to be 3. This molecule registered a C3dg formation in activated human serum (TRIFMA), EC50 WT/EC50Variant in assay [7] of 26.2. In assay [13], the C3dg formation (TRIFMA), EC50 against wild type (FIG. 10) was 18 fold.

On to “CFI-HSA variant N531G with hCR1; CCP15; CCP16; CCP17 C-terminal fusion (enzyme)”, for which, in assay [12], the C4c No Cofactor EC50 (C4b cleavage, C4c ELISA) was found to be 76.2 nM.

On to “CFI-HSA variant N531G; P535A with hCR1; CCP15; CCP16; CCP17 C-terminal fusion (enzyme)”, for which the C4c No Cofactor EC50 (C4b cleavage, C4c ELISA) in assay [12] was 50.3 nM.

As to “CFI-HSA variant P535G with hCR1; CCP15; CCP16; CCP17 C-terminal fusion (enzyme)”, the C4c No Cofactor EC50 (C4b cleavage, C4c ELISA) in assay [12] is 160 nM.

In turn, CFI-HSA variant Y408L + N531G (enzyme) came in with a C3b cleavage, % Activity in [5] of 123%. The C3b cleavage rate, kmut/kwt in assay [6] was 3. Besides, in [7], the C3dg formation in activated human serum (TRIFMA), EC50 WT/EC50Variant was determined as 0.6.

Molecule “CFI-HSA variant Y408L; E457G; E461Q; R462K; N531G with hCR1; CCP15; CCP16; CCP17 C-terminal fusion (enzyme)” returned a C4c No Cofactor EC50 (C4b cleavage, C4c ELISA) in assay [12] of 106 nM.

In turn, “CFI-HSA variant Y408L; E457G; N531G with hCR1; CCP15; CCP16; CCP17 C-terminal fusion (enzyme)” showed a C4c No Cofactor EC50 (C4b cleavage, C4c ELISA) in [12] of 156 nM.

Regarding “CFI-HSA variant Y408L; E457G; N531G; P535G with hCR1; CCP15; CCP16; CCP17 C-terminal fusion (enzyme)”, the C4c No Cofactor EC50 (C4b cleavage, C4c ELISA) in assay [12] was determined as 97.7 nM.

In assay [12], “CFI-HSA variant Y408L; E457G; R462K; F464Y; N531G with hCR1; CCP15; CCP16; CCP17 C-terminal fusion (enzyme)” had a C4c No Cofactor EC50 (C4b cleavage, C4c ELISA) of 104 nM.

Turning to “CFI-HSA variant Y408L; N531G with hCR1; CCP15; CCP16; CCP17 C-terminal fusion (enzyme)”, the C4c No Cofactor EC50 (C4b cleavage, C4c ELISA) in assay [12] is 57.1 nM.

As for “CFI-HSA variant Y408L; N531G; P535G with hCR1; CCP15; CCP16; CCP17 C-terminal fusion (enzyme)”, the C4c No Cofactor EC50 (C4b cleavage, C4c ELISA) in assay [12] came out at 50.1 nM.

Regarding “HSA + CfI + GGSSGG (SEQ ID NO: 6) + CR1(ccp15-17) (enzyme)”, the C4c No Cofactor EC50 (C4b cleavage, C4c ELISA) in assay [12] was 63.5 nM. In assay [14], this molecule came in with a C3c No Cofactor EC50 (C3b cleavage, iC3b ELISA) of 33.7 nM.

Turning to “recombinant human furin (from UniProt P09958) (enzyme)”, the activation (cleavage) of CFI-HSA by furin in assay [15] is over 90%.

B1: Plasma derived, wild type human CFI (enzyme)
chain: KVTYTSQEDLVEKKCLAKKYTHLSCDKVFCQPWQRCIEGTCVCKLPYQCPKNGTAVCATNRRSFPTYCQQKSLECLHPGTKFLNNGTCTAEGKFSVSLKHGNTDSEGIVEVKLVDQDKTMFICKSSWSMREANVACLDLGFQQGADTQRRFKLSDLSINSTECLHVHCRGLETSLAECTFTKRRTMGYQDFADVVCYTQKADSPMDDFFQCVNGKYISQMKACDGINDCGDQSDELCCKACQGKGFHCKSGVCIPSQYQCNGEVDCITGEDEVGCAGFASVTQEETEILTADMDAERRRIKSLLPKLSCGVKNRMHIRRKRIVGGKRAQLGDLPWQVAIKDASGITCGGIYIGGCWILTAAHCLRASKTHRYQIWTTVVDWIHPDLKRIVIEYVDRIIFHENYNAGTYQNDIALIEMKKDGNKKDCELPRSIPACVPWSPYLFQPNDTCIVSGWGREKDNERVFSLQWGEVKLISNCSKFYGNRFYEKEMECAGTYDGSIDACKGDSGGPLVCMDANNVTYVWGVVSWGENCGKPEFPGVYTKVANYFDWISYHVGRPFISQYNV
B1 had a C4b cleavage EC50 in assay [3] of 385 nM. The molecule further registered a C3b cleavage EC50 in [4] of 25.3 nM. Besides, the C3b-enriched AP hemolytic assay IC50 in assay [2] came to 12.9 nM. In addition, the “AP IC50, alternative pathway hemolysis” value in assay [16] was 6.05 nM. For the same molecule, the “CP IC50, classical pathway hemolysis of sensitised sheep red cells” value in assay [17] amounted to 135 nM.
